One block for each molecule: values may come before it.
Legend:
Assay in all cases: cell-based or functional assay
[1] = biological target: intermediate affinity IL2 receptor on TF-1β cells (UniProt P14784)
[2] = biological target: high affinity IL2 receptor on CTLL-2 mouse T cells (mouse) (UniProt P01590)
[3] = biological target: T1, intermediate affinity IL2 receptor on TF-1β cells (UniProt P14784 27-551; P31785 23-369)
T1 sequence (looked up) 1: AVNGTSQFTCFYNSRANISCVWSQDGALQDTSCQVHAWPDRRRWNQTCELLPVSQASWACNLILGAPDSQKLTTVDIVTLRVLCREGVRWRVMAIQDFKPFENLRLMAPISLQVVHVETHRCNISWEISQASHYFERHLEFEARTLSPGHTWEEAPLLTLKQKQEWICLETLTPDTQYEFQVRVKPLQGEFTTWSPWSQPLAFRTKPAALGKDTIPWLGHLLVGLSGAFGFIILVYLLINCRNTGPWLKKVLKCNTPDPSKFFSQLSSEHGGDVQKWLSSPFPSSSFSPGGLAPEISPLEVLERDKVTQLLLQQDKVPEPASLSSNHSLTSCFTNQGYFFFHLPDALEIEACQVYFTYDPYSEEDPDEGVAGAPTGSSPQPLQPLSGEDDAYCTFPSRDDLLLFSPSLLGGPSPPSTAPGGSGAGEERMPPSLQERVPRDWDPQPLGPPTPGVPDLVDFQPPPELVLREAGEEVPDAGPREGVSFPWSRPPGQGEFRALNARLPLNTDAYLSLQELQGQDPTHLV
T1 sequence (looked up) 2: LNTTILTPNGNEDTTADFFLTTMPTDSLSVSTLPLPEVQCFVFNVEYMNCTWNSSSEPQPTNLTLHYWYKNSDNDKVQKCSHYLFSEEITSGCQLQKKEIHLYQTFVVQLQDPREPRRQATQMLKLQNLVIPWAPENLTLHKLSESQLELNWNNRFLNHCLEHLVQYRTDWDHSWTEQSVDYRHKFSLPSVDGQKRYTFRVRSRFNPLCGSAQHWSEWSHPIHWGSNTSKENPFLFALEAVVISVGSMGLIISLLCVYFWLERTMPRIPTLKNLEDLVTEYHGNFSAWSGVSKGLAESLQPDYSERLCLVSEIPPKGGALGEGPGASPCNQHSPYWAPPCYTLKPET

[4] = biological target: T2, high affinity IL2 receptor on CTLL-2 mouse T cells (mouse, UniProt P01590 22-268; P16297 27-539; P34902 23-369)
T2 sequence (looked up) 1: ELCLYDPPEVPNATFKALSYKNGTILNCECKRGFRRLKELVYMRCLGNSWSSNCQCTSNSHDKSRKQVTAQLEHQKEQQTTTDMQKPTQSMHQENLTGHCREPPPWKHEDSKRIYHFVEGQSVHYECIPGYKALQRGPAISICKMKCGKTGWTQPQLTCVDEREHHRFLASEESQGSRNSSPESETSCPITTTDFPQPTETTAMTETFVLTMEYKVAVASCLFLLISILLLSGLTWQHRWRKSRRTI
T2 sequence (looked up) 2: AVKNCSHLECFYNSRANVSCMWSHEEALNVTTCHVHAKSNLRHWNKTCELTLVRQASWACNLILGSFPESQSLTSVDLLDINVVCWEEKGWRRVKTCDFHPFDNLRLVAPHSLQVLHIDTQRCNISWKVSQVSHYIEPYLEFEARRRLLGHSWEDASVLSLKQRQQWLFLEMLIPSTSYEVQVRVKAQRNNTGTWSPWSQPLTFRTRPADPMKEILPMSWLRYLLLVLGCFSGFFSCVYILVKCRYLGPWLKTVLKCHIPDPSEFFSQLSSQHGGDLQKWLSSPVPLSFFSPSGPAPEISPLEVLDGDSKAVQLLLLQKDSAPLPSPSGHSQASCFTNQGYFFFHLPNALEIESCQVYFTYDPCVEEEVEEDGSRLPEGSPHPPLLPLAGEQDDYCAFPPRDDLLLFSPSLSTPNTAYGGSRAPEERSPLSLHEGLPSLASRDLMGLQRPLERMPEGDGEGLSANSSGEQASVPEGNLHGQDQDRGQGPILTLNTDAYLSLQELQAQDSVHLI
T2 sequence (looked up) 3: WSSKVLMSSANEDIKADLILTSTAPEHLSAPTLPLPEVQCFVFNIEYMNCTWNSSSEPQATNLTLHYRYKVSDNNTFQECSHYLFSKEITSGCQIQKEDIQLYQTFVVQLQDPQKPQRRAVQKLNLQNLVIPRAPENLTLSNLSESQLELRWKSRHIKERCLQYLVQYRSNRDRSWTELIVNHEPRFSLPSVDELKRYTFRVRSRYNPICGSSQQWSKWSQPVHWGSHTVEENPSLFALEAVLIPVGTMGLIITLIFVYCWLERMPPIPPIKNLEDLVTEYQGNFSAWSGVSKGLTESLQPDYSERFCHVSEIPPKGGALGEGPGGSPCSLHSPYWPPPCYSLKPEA

Relative Activity High aff/Inter Aff (intermediate affinity part) [1]: 1 | Relative Activity High aff/Inter Aff (high affinity part) [2]: 1 | Selectivity for High Affinity Receptor [2]: 1
Molecule: ch14.18-IL2-H heavy chain fusion (H-fusion with a chimeric 14.18)

Relative Activity High aff/Inter Aff (intermediate affinity part) [3]: 0.01 | TF-1β (Int aff) ED50 [3]: > 0.5 µg/mL | Relative Activity High aff/Inter Aff (high affinity part) [4]: 1 | Selectivity for High Affinity Receptor [4]: > 100
B1: 14.18-IL2-L containing SEQ ID NO: 5 (other)
light: EIVMTQSPATLSVSPGERATLSCRSSQSLVHRNGNTYLHWYLQKPGQSPKLLIHKVSNRFSGVPDRFSGSGSGTDFTLKISRVEAEDLGVYFCSQSTHVPPLTFGAGTKLELKRTVAAPSVFIFPPSDEQLKSGTASVVCLLNNFYPREAKVQWKVDNALQSGNSQESVTEQDSKDSTYSLSSTLTLSKADYEKHKVYACEVTHQGLSSPVTKSFNRGECAPTSTQLQLEHLLLDLQMILNGINNYKNPKLTRMLTFKFYMPKKATELKHLQCLEEELKPLEEVLNLAQSKNFHLRPRDLISNINVIVLELKGSETTFMCEYADETATIVEFLNRWITFCQSIISTLT
VH: EVQLLQSGPELEKPGASVMISCKASGSSFTGYNMNWVRQNIGKSLEWIGAIDPYYGGTSYNQKFKGRATLTVDKSSSTAYMHLKSLTSEDSAVYYCVSGMEYWGQGTSVTVSS

Relative Activity High aff/Inter Aff (intermediate affinity part) [3]: 0.01 | TF-1β (Int aff) ED50 [3]: > 0.5 µg/mL | Relative Activity High aff/Inter Aff (high affinity part) [4]: 1 | Selectivity for High Affinity Receptor [4]: > 100
B2: 14.18-IL2-L containing SEQ ID NO: 6 (other)
light: IVMTQSPATLSVSPGERATLSCRSSQSLVHRNGNTYLHWYLQKPGQSPKLLIHKVSNRFSGVPDRFSGSGSGTDFTLKISRVEAEDLGVYFCSQSTHVPPLTFGAGTKLELKRTVAAPSVFIFPPSDEQLKSGTASVVCLLNNFYPREAKVQWKVDNALQSGNSQESVTEQDSKDSTYSLSSTLTLSKADYEKHKVYACEVTHQGLSSPVTKSFNRGECTQLQLEHLLLDLQMILNGINNYKNPKLTRMLTFKFYMPKKATELKHLQCLEEELKPLEEVLNLAQSKNFHLRPRDLISNINVIVLELKGSETTFMCEYADETATIVEFLNRWITFCQSIISTLT
VH: B1 VH

From patent US20140294758A1 (published 2014)
